Consider one protein from article PMC11546553, “Chitin Translocation Is Functionally Coupled with Synthesis in Chitin Synthase” (International Journal of Molecular Sciences, 2024).

By stoichiometry N is commonly meant a count of units in the complex or per binding partner.

This data set deals with the molecule itself. Kind of data set: cryo-EM structure; purified PsCHS at 3 mg/mL in digitonin, incubated with 0.5 mM UDP-GlcNAc and 1 mM Mn2+ for 15 min or 40 min at 25 °C before freezing; UDP/Mn2+-bound state resolved for both samples.

B1: Phytophthora sojae chitin synthase 1 (enzyme)
chain: MSGAPPPSSGFAPRSYGQQPLSHAPRSSMMSVEYDGIPLPPPSIRSCGSQQYVTSYIPTGAAFPPSSVQDMISSMKSYASATDLVRTYSEIPSVEEALSTLDRAAAALNARRYRDALKLYLEGGYAMANVAERQANPKICNLLTSKGFETLNWCARLCDWIEGRIKEKHPRPGVHKVGIPVSNWDEDWVGPFMDEEEARRMWYTPVYCPHPIDFSNLGYRLRCVETGRRPRLMICITMYNEGPQQLKATLKKLANNLAYLKEQMPGDEKSLTGAFAGDDVWQNVLVCIVADGREQVHPKTLDYLEAIGLYDEDLLTINSAGIGAQCHLFEHTLQLSVNGKCLLPIQTVFALKENKASKLDSHHWYFNAFAEQIQPEYTAVMDVGTMLTKSALYHLLFAFERNHQIGGACGQLTVDNPFENLSNWVISAQHFEYKISNILDKSLESCFGFISVLPGAFSAYRYEAIRGAPLDAYFQTLNIELDVLGPFIGNMYLAEDRILSFEVVARKNCNWTMHYVKDAVARTDVPHDLVGLISQRKRWLNGAFFATLFSIWNWGRIYSESKHTFVRKMAFLVFYVYHLLYTAFGFFLPANLYLALFFIVFQGFQQNRLEFIDTSEYSQTVLDCAVYIYNFSYLFGLLMLIIIGLGNNPKHMKLTYYFVGAVFGLMMMLSSLVGAGIFFSTPATVHSIVVSILTVGVYFIASALHGEVHHIFMTFTHYTALIPSFVNIFTIYSFCNLQDLSWGTKGLHDDPLLAASLDETEKGDFKDVIAKRRALEELRREEKERVENRKKNFEAFRTNVLLTWAFSNLIFALFVVYFASSSTYMPVLYIFVASLNTCRLLGSIGHWVYIHTEGLRGRVIDKSECGNGTGRYPQNSYVQLEEHYAALAEDQRTYASGRTNASVRTVNDVSSAA
notes: Phytophthora sojae chitin synthase 1 (PsCHS1), the PsCHS gene in pcDNA3.1; the final models lack residues 1-22, stretches within 40-90, 738-761 and 860-925; also called PsCHS; PsCHS1; source: HEK293F cells, transfected (pcDNA3.1), purified (digitonin solubilisation, Ni-NTA, Superose 6 Increase SEC)
On to B1, for which the “stoichiometry N” value was determined as 2.
